Target: KDM4B (1-350) (UniProt O94953 1-350)
Test: EMSA

Chain of KDM4B (1-350) (O94953 1-350): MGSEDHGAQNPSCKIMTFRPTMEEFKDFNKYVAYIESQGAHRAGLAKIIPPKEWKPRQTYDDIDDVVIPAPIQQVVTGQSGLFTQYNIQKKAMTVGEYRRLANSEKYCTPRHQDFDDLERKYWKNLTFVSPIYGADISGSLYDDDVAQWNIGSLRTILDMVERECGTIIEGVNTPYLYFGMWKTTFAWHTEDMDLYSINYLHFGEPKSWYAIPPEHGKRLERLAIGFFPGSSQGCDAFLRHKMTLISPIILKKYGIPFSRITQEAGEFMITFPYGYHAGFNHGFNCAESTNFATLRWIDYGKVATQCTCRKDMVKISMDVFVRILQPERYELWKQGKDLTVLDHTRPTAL

CUCAUCUCCAGUCUGAGUAAUAAUGCUUAUAGUAUUAUGG (ssRNA) [WT-4BRBS (AR-A2)]: binds.

Source: publication PMC7145715
